Experimental data reported in the nanobody polyreactivity screen of Harvey et al. (2022).

experiment: yeast display, Sf9 membrane polyspecificity reagent, FACS + sequencing; frameworks hold sequencing errors
In short: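 Using colony PCR, genes from sorted yeast display clones were amplified, then sequenced on MiSeq at 2 × 250 and filtered by CDR length. The clones had been stained with 10% biotinylated, detergent-solubilized Sf9 membrane reagent for 1 hour at 4 °C and sorted by FACS into low and high (top ~1%) gates on anti-HA and streptavidin fluorescence. Polyreactivity labels come from the gate of origin.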

Row | Sequence | polyreactivity (PSR sort gate)
1 | QVQLVESGGGLVQAGGRLRLSCAASGRTFAYYAMGWYRQAPGKERELVASITTRDGSTYYADSVKGRFTISRDNAKNTVYLQMNSLKPEDTAVYYCAAATEYSSGYEYDYWGQGTQVTVSS | low polyreactivity
2 | QFHLVESCGGLVQAGGSLRLSCAASGIIFSTYFMGWYIQAPGKERELVAAISSRGFSTYYADSVKGRFTISRDNAKKTVYLQMNSLIPEDTAVYYCAARYYYSRSRLYYYWGQGTQVTVSS | high polyreactivity
3 | QVQLVESGGGLVQAGGSLRLSCAASGSIFQHNAMGWYRQAPGKERELVATISESGGSTYYADSVKGRFTISRDNAKNTVYLQMNSLKPEDTAVYYCNTDYDYGWWDLGEFDYWGQGTQVTVSS | low polyreactivity
4 | QVQLVESGGGLVQAGGSLRLSCAASGSSFNINAMGWYRQAPGKERELVAAISWSGDITYYADSVKGRFTISRDNAKNTVYLQLNSLKPEDTAVYYCNTDDPGNYWYAEYDYWGQGTQVTVSS | low polyreactivity
5 | QVQLVESGGGLVQAGGRLRLSCAASGSTLPANAMGWYRQAPGKERELVSAITITTDGSTYYADSVKGRFTISRDNAKNTVYLQMNSLKPEDTAVYYCAVDRYRYHNRKMGYWGQGTEVTVSS | low polyreactivity
6 | QVQIVESGGGLVQAGGSLRLSCADSGSTRIYAMGWYRQAPGKERELVAAISWSGGRTYYADSVKGRFTISRDNAKNTVYLQMNSLKPEDTAVYYCAAKGSGRDYWGQGTQVTVSS | high polyreactivity
7 | QVQLVESGGGLVQAGGSLRLSCAASGSIFNAYAMGWYRQAPGKERELVAVISRPGGSTYYADSVKGRFTISRDNAKNTVYLQMNSLKPEDTAVYYCNVYYPYKHRYYHLDYWGQGTQVTVSS | high polyreactivity
8 | QVQLVESGGGLVQAGGSLRLSCAASGSTFYRNAMGWYRQAPGKERELVAAISTSGGSTYYADSVKGRFTISRDNAKNTVYLQMNSLKPEDTAVYYCATDSYYFDVMYGWKEYDYWGQGTQVTVSS | high polyreactivity
9 | QVQLVESGGGLVQAGGSLRLSSAASGRIFAYNAMGWYRQAPGKEREFVAAITLGTGRTYYADSVKGRFTISRDNAKNTDYLQMNSLKAEDTAVYYCAARRVRGDVDYWYIYDYWGQGTQVTVSS | high polyreactivity
10 | QVQLVESGGGLVQAGGSLRLSCAASGITFTFYAMGWYRQAPGKERELVATIDSGGSTNYADSVKGRFTISRDNAKNTVYLQMNSLKPEDTEVYYCAADGVWYYYDMDYWGQGTQVTVSS | low polyreactivity
11 | QVQLVESGGGLDQAGGSLRLSCAASGFIFWRNTMGWYRPAPGKERELVAVITRGGSTYYADSVKGRFTISRDTAKNTVYLQMNSLKPEDTAVYNSAARNDYFKTFSGYDYWGQGTQVTVSS | low polyreactivity
12 | QVQLVESGGGLVQAGGSLRLSCAASGGTFSFYAMGWYRQAPGKEREFVAAITASDGSTYYADSVKGRFTSSRDNAKNTVYLQMNSLKPEDTAVYYCAADAYGYKFNSWGQGTQVTVSS | low polyreactivity
13 | QVQLVESGGGLVQAGGSLRLSCAASGITIVNYVMGWYRQAPGKERELVAAISIGGGTYYADSVKGRFTISRDNAKNTVYLQINSLKPEDTAVYYCNASYGGLSFYIGVYVTGYDYWGQGTQVTVSS | low polyreactivity
14 | QVQLVESGGGLVQAGGSLSISCAASGLSFSVNAMGWYRPAPGKEREFVAAISSSGGRTYYADSVKGRFTISRDHAKNTVYLQMNSLKPEYTAGYYCATAQGSRVDYWGQGTQVTLSS | high polyreactivity
15 | QVQLVESGGGLVQAGGSLRLSCAASGSIFALYAMGWYRQAAGKERELVAAITKGGGSTYYADSVKGRFTISRDNAKNTVYLQMNSLKPEDTAVYYCAARGRYSAPDYGYWGQGTQVTVSS | high polyreactivity
16 | QVQLVESGGGLVQAGGSLRLSSAASGRISQNAIGWYRQAPGKERELVAAITFSGGSTYYADSVKGRFTISRDNAKNTVFLQMNSLKPEDTAVYYCAAEDRPLYWRFPDEMDYWGQGTQVTVSS | low polyreactivity
17 | QVQLVESGGGLVQAGGSLRLSSAASGSTFLYYVMGWYRQARGKERELVAGITSRGASTYYADSVKGRFTFSRDNAKNTVYLQMNSLKPEDTAVYDCAKPGFTYPGRYNYWGQGTQVTVSS | high polyreactivity
18 | QVQLVESGGGLVQAGGSLRLSCAASGRTFTRYAMGLYRPAPGKERELVAAISYIGGRTNYADSVKGRFTISRDNAKKTVYLQMHSLKPEDTAVYYCAASRPWVYYDGLVYWGQGTQVTVTS | high polyreactivity
19 | QVQLVESGGGRDQAGGSLRLSCAASGLTSYSNAMGWFRQAPGKERELVAAISRSGGSTYYADSVKGRFTISRDTAKNSVYLQMISLKAEDSAFYYCAASIWVYLLGGGYSDYDYWGQGTQETVSS | low polyreactivity
20 | QVQLLESGAGLVQAGGSLRLSCADSGTFYGYAMGWYRQAPGKERELVAAITWSGGSTYYADSVKGRFTISRDNSKNTVYLQMISLKPEDTAVYYCAASLYSGYDSWGQGTQVTVSS | low polyreactivity
21 | QVQLQVSGGVLVQAGGSLRLTCAASGSIFLTSEMGWYRQAPGKERELVAAIATGTSTNYADSVKGRFTISRDNAKNTVYLQMNSLKPEDTAVYYCETYHYWGQGTQVTVSS | low polyreactivity
22 | QVQLVESGGGLVQAGGSLRLSCAASGRTFTSYAMGWYRQAPGKERELVAGISSGGSTNYADSVKGRFTISRDNAKNTVYLQMNSLKPVDTAVYYCAAGFSPGTFYAPTLAFDYWGQGTQVTVSS | low polyreactivity

Row | Sequence | polyreactivity (PSR sort gate)
23 | QVQLVESGGGLVQAGGSLRLSCAASGRTFASYAMGWYRQAPGKERELVASIRYSGGSTHYADSVKGRFTISRDNAKNTVYLQMNSLKPEDTAVNYCNARPKFRTYNYWGQGTQVTVSS | high polyreactivity
24 | QVQLVESAGGLVQAGGSLRLSCAAYGSIFGFYAMGWYRQAPGKERELVAAIDSGDSTNYADSVKGRFTISRDNAKNTVYLQMNSLKPEDTAVYYCNAEAWWYFWFDYWGQGTQVTVSS | low polyreactivity
25 | QVQLVESGGGLVQAGGSLRLSCAASGSTFTGNVMGWYRQAPGKERELVAAIDSGATTNYADSVKGRFTISRDNAKNTVYLQINSLKPEDTAVYYCATDGLDFWFIYDYWGQGTQVTVSS | low polyreactivity
26 | QVQLVESGGGLVQAGGSLRLSCAASGSTFDRNVMGWYRQAPGKERELVAAISRVSSTNYADSVKGRFTISRDNAKNTVYLQMNSLKPEDTAVYYFAADGAGSIMNYWGQGTQVTVSS | low polyreactivity
27 | QVQLQESGGGQVQAGGSLRLSCAASGYISTHYFMGWYRQAPGKDREFVAGISNGSITNYADSVKGRFTISRDNARNTVYLQMNSLKPEDTAVYYGAAFEWTYVRFGYWGQGTQVTVSG | high polyreactivity
28 | QVQLVESGGGLVQAGGSLRLSCAASGRIFGFYALGWYRQAAGKEWELVAAISQSRGSTYYADSVKGRFTISRDTANNTVYLQMNSLKPEDTAVYYCAKGYKYGKNIYYYWGQGTQVTVSS | high polyreactivity
29 | QVQLVESGGRLVQAGGSLRLSCAASGYTFPYANGWYRQAPGKERELVAGITSSGGSTYYADSVKGRFTISRDNAKNTVYLQMNSVKPEDTAVYYCNADVFVWLYPHYLIFDYWGQGTQVTVSS | low polyreactivity
30 | QVQRVESGGGLVQAGGSLRLSCAASGIIFDSYAMGWYRQAPGKERELVAAITSDSGRTYYADSVKGRFTISRDNAKNTVYLQMNSLKPEDTAVYYCAKGWDGTYDYWGQGTQVTVSS | low polyreactivity
31 | QVQLVESGGGLVQAGGSLRLSCAASGFIFDYNAMVWYRQAPGKERELVAAISISGGGTYYADSVKGRFTISRDNAKNTVYLQMNSLKPEDTAVYYCATAGRYDAYDYWGQGTQVTVSS | low polyreactivity
32 | QVQLVESGGGLVQAGGSLRLSCAASGGIFARNVMGWYRQAPGKERELVAAISGSGGSTYYADSVKGRFTISRDNAKNTVYLQMNSLKPEDTAVYYCAARTPGVSVYKDGYWGQGTQVTVTS | low polyreactivity
33 | QVQLVESGGGLFQAGGSLRLSCAASGRTLPAYAMGWYRQAPGKERELVAAISWGGGSTYYADSVKGRFTISRDNAKNTVYLQMNSLKPEDTSVYYCAVAGYWFAVAEYEYWGQGTQVTVSS | low polyreactivity
34 | QVQLVESGGGLVQAGGSLRLSCAASGATFPVYAMGWYRQAPGKEWELVAAISRSGASTYYADSVKGRFTISRDNAKNTVYLQMNSLKPEDTAVYYCARGYQGRLKYEYWGQGTQVNVSS | low polyreactivity
35 | QVQLVESGGGLVQAGGSLRLSCAASGITFTFNAMGWYRQAPGKERELVAAITWSGGSTFYADSVKGRFTISRDNAKNTVYLQMNSLKPEDTAVYYCARDTELYVRWLDYWGQGTQVSVSS | low polyreactivity
36 | QVQLEESGGGLVQAGGSLRLSCAASGRTFGRYDMGWYRQAPGKEREFVAAISTRGSRTYYADSVKGRFTISRDNAKNTVYLQMNSLKAEDTAVYYCAAEYLPRPYSWIYYYWGQGTQVTVSS | high polyreactivity
37 | QVQLVESGGGLLQAGGSLRKSCAASGFTFDENSMGGYRQAPAINYSGASTYYAVSVKGRFTISRDNAKNTVYLQMNSLKPEDTAVYYCAAEVVAQMIYWGQGTQVTVSS | low polyreactivity
38 | QVQLVESGGGLVQAGGSLRLSCAASGSTFVRYAMGWYRPAPGKERELVAVISSSGGTTYYADSVKGRFTISRDNAKNTVYLQMNSLKPEDTAVYSCARRVRWWGPRRSDFDYWGQGTQVTVSS | high polyreactivity
39 | QVQLVESGGGLVQAGGSLRLSCAASGRIFLPNAMGWYRQAPGKEREFVASISWSGGSTYYADSVKGRFTISRDNAKNTVYLQMNSLNPEDTAVYYCAAQSPAYYSKSYWGQGTQVTVSS | low polyreactivity
40 | QVQLVESGGGLVQAGGSLRLSCAASGGTFPRYAMGWYRQAPGKERELVAAISRSGGSTYYADSVKGRFTISRDNAKNTVYLQMNSLKPEDTAVYYCATGYSYIMDYWGQGTQVTVSS | high polyreactivity
41 | QVQLVESGGGLVQAGGSLRLSCAASGNTFPVSYTMGWYRQAPGKEREFVAVITSGGGRTYADSVKGRFTISRDTAKNTVYLQMNSLKPEDTAVYYCAVRPRVSSWKFRSRRYGYWGQGTRVTVSS | high polyreactivity
42 | QVQLVESGGGLVQAGGSLRLSCAASGSTFAGYAMGWYRQAPGKERELVAAISYSGGTTYYADSVKGRFTISRDNAKNTVYLQMNSLKPEDTAVFYCAARKKYKTPSYDMYYWGQGTQVTVSS | high polyreactivity
43 | QDQLVDSGGGLVQAGGSLRLSSSASGLIFYKYAMGWYRQAPGKERELVAAISSSGGSTYYADSVKGRFTISRDTAKITVYLQMNSLKPDDTAVYYCAARTNRRGYNYWGQGTQVTVSS | high polyreactivity
